The values that follow come from patent US12404345B2, “Humanized antibodies against iRHOM2” (SCIRHOM GMBH, priority 2021, dated 2025).

Numbering of substitutions follows the chain as printed.

Sequences and labels used below:
B1: 23-B-04: humanized antibody binding human iRhom2; HCVD SEQ ID NO 25, LCVD SEQ ID NO 29 (antibody, V domains shown)
VH: QVTLRESGPALVKPTQTLTLTCTFSGFSLSTFGMGVGWIRQPPGKALEWLAHIWWDDEKYYNSALKSRLTISKDTSKNQVVLTITNMDPVDTATYYCARISNYGSNYWYFNVWGQGTLVTVSS
VL: AIQLTQSPSSLSASVGDRVTITCRASSSVSYMYWYQQKPGKAPKVLIYDTSNLASGVPSRFSGSGSGTDYTLTISSLQPEDFATYYCQQWNAYPLTFGQGTKLEIK
modifications: antibody sequences
B2: 42-B-04: humanized antibody binding human iRhom2; HCVD SEQ ID NO 41, LCVD SEQ ID NO 45 (antibody, V domains shown)
VH: B1 VH with M34R, S101Q, N111D
VL: B1 VL with S28R, V29I, Y33F
modifications: antibody sequences
B3: 42-B-02: humanized antibody binding human iRhom2; HCVD SEQ ID NO 33, LCVD SEQ ID NO 37 (antibody, V domains shown)
VH: B1 VH with M34R, S101Q, N111D
VL: B1 VL with S28R, V29I, Y33F, A92S
modifications: antibody sequences
B4: 16-B-03: humanized antibody binding human iRhom2; HCVD SEQ ID NO 1, LCVD SEQ ID NO 5 (antibody, V domains shown)
VH: QVTLRESGPALVKPTQTLTLTCTFSGFSLSTFALGVGWIRQPPGKALEWLAHIWWDDDKYYNPALKSRLTISKDTSKNQVVLTITNMDPVDTATYYCARITTYYYGMDYWGQGTLVTVSS
VL: EIVMTQSPDFQSVTPKEKVTITCRASQSIGNHLHWYQQKPDASPKLLIKYASQSISGVPSRFSGSGSGTDFTLTINSLEAEDAATYFCQQSYQWPLTFGQGTKLEIK
modifications: antibody sequences
B5: 16-B-05: humanized antibody binding human iRhom2; HCVD SEQ ID NO 9, LCVD SEQ ID NO 13 (antibody, V domains shown)
VH: B4 VH with D57E
VL: B4 VL with Q93N
modifications: antibody sequences
B6: 16-B-07: humanized antibody binding human iRhom2; HCVD SEQ ID NO 17, LCVD SEQ ID NO 21 (antibody, V domains shown)
VH: B4 VH with D57E
VL: B4 VL
modifications: antibody sequences

One assay concerns rabbit iRhom1. In words: FACS binding on MEF-DKO-Rabbit-iR1-FL-WT-T7 cells. Conditions: antibody at 3 μg/ml. An excerpt:
(§1) Next, iRhom1/2−/− DKO MEFs stably expressing a tagged form of rhesus monkey, cynomolgus monkey, dog or rabbit iRhom2 were generated in order to determine cross-reactivity of the antibodies of the invention with the respective orthologue of iRhom2. iRhom1/2−/− DKO MEFs stably expressing a tagged form of rhesus monkey, cynomolgus monkey, dog or rabbit iRhom1 were generated to confirm specificity for iRhom2 versus iRhom1 of these species.
(§2) In brief, on day 1, Phoenix-ECO cells (American Type Culture Collection, USA) were seeded on 6-well tissue culture plates (Greiner, Germany) in standard growth medium at 8×10^5 cells per well and kept overnight at 37° C., 5% CO2. On day 2, the medium was replaced by fresh medium supplemented with chloroquine (Sigma-Aldrich, USA) at a final concentration of 25 μM. Applying the calcium phosphate method, cells were transfected with 2 μg/ml of pMSCV (Clontech, USA) empty vector, pMSCV-rhesus-iR2-FL-WT-T7 encoding rhesus monkey iRhom2 full length wild type C-terminally tagged with 3 consecutive copies of the T7 epitope, pMSCV-cyno-iR2-FL-WT-T7 encoding cynomolgus monkey iRhom2 full length wild type C-terminally tagged with 3 consecutive copies of the T7 epitope, pMSCV-dog-iR2-FL-WT-T7 encoding dog iRhom2 full length wild type C-terminally tagged with 3 consecutive copies of the T7 epitope or pMSCV-rabbit-iR2-FL-WT-T7 encoding rabbit iRhom2 full length wild type C-terminally tagged with 3 consecutive copies of the T7 epitope, respectively, and were kept at 37° C., 5% CO2. After 7 hours, the transfections were stopped by replacing cell supernatants with standard growth medium lacking chloroquine, and cells were incubated at 37° C., 5% CO2 to allow virus production overnight. In parallel, immortalized iRhom1/2−/− DKO MEFs as target cells for retroviral infection were seeded on 6-well tissue culture plates (Greiner, Germany) in standard growth medium at 1×10^5 cells per well and were also kept overnight at 37° C., 5% CO2. On day 3, the supernatants of Phoenix-ECO cells releasing pMSCV, pMSCV-rhesus-iR2-FL-WT-T7, pMSCV-cyno-iR2-FL-WT-T7, pMSCV-dog-iR2-FL-WT-T7 or pMSCV-rabbit-iR2-FL-WT-T7 ecotrophic virus, respectively were collected, filtered with 0.45 μm CA filters, and supplemented with 4 μg/ml of polybrene (Sigma-Aldrich, USA). Upon removal of medium from the immortalized iRhom1/2−/− DKO MEFs, the virus containing supernatants were added to the target cells for 4 hours at 37° C., 5% CO2 for first infection. Simultaneously, Phoenix-ECO cells were re-incubated with fresh medium, which, after another 4 hours, was filtered and used for the second infection of the respective target cell populations, again in the presence of 4 μg/ml of polybrene. Likewise, a third, but overnight infection cycle was performed. On day 4, virus containing cell supernatants were replaced by fresh standard growth medium. From day 5 onwards, cells were grown in the presence of 2 mg/ml of geneticin (G418, Thermo Fisher Scientific, USA) for the selection of immortalized MEF-DKO-EV control cells stably infected with pMSCV empty vector, pMSCV-rhesus-iR2-FL-WT-T7 cells stably expressing rhesus monkey iRhom2 full length wild type C-terminally tagged with 3 consecutive copies of the T7 epitope, pMSCV-cyno-iR2-FL-WT-T7 cells stably expressing cynomolgus monkey iRhom2 full length wild type C-terminally tagged with 3 consecutive copies of the T7 epitope, pMSCV-dog-iR2-FL-WT-T7 cells stably expressing dog iRhom2 full length wild type C-terminally tagged with 3 consecutive copies of the T7 epitope or pMSCV-rabbit-iR2-FL-WT-T7 cells stably expressing rabbit iRhom2 full length wild type C-terminally tagged with 3 consecutive copies of the T7 epitope, respectively. Upon propagation, cells were stocked for future usage. In parallel, iRhom1/2−/− DKO MEFs stably expressing a tagged form of rhesus monkey, cynomolgus monkey, dog or rabbit iRhom1 were generated in an analogous manner. […]
Background: In flow cytometry, cells or beads pass a laser one at a time.
For B1, the “binding to rabbit iRhom1 on MEF-DKO-Rabbit-iR1-FL-WT-T7 cells” value (from here on “binding to rabbit iRhom1”) is on record as “do not recognize rabbit iRhom1”.

As for B2, the “binding to rabbit iRhom1” value was “do not recognize rabbit iRhom1”.

For B3, the “binding to rabbit iRhom1” value is recorded as “do not recognize rabbit iRhom1”.

In the case of B4, the “binding to rabbit iRhom1” value is reported as “no significant binding”.

For the molecule B5, the “binding to rabbit iRhom1” value is “do not recognize rabbit iRhom1”.

B6: the “binding to rabbit iRhom1” value is “do not recognize rabbit iRhom1”.

A further assay relates to dog iRhom1. Briefly: FACS binding on MEF-DKO-Dog-iR1-FL-WT-T7 cells. Conditions: antibody at 3 μg/ml.
Text: as §1, §2
With B1, the “binding to dog iRhom1 on MEF-DKO-Dog-iR1-FL-WT-T7 cells” value (“binding to dog iRhom1” for short) is given as “do not recognize dog iRhom1”.

B2: the “binding to dog iRhom1” value is listed as “do not recognize dog iRhom1”.

For B3, the “binding to dog iRhom1” value is “do not recognize dog iRhom1”.

For the molecule B4, the “binding to dog iRhom1” value is listed as “no significant binding”.

B5: the “binding to dog iRhom1” value is given as “do not recognize dog iRhom1”.

For the molecule B6, the “binding to dog iRhom1” value is reported as “do not recognize dog iRhom1”.
